{"source": "patent US20110086795A1", "target": "Myc-tagged Slo1QEERL", "assay": "cell-based or functional assay", "data": [{"substance": "HA-tagged Slo1VEDEC", "values": [{"measurement": "reduction in mean surface expression of Slo1 (cell-surface biotinylation, densitometry)", "result": 50, "unit": "%"}]}]}
